From PMC6274998, “Mycobacterium tuberculosis ClpC1 N-Terminal Domain Is Dispensable for Adaptor Protein-Dependent Allosteric Regulation” (International Journal of Molecular Sciences, 2018)

Target: T1, ∆NTD-ClpC1 (ClpC1 truncation mutant lacking N-terminal residues M1-Y145) (Mycobacterium tuberculosis H37Rv, UniProt P9WPC9 146-848)
T1 construct: ClpC1, M. tuberculosis H37Rv, Rv3596c, lacking N-terminal residues M1-Y145 (begins at residue 146); also called ∆NTD-ClpC1 truncation; not shown: His6-SUMO, N-terminal, cleaved
T1 sequence: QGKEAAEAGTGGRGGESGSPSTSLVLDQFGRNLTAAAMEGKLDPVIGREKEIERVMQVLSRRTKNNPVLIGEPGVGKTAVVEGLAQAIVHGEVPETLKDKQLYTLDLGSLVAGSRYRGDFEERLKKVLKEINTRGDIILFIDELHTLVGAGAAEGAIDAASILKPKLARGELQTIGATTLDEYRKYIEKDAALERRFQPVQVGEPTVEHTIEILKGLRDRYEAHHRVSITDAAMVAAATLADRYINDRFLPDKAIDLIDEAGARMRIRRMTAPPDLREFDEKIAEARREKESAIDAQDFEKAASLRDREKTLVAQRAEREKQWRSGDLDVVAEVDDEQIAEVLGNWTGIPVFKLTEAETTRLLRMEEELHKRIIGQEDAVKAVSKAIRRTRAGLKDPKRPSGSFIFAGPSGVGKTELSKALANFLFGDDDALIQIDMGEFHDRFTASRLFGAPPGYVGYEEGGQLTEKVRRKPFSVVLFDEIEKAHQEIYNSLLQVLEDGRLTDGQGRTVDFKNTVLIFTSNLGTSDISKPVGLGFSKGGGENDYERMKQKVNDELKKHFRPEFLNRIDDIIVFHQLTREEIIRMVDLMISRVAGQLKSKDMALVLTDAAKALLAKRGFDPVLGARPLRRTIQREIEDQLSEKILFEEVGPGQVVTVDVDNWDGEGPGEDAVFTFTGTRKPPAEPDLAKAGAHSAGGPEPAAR
Experiment: pull-down
Conditions: both partners purified

B1: His6-SUMO-ClpS (Mycobacterium tuberculosis ClpS adaptor protein, His6-SUMO fusion) (natural protein)
chain: MAVVSAPAKPGTTWQRESAPVDVTDRAWVTIVWDDPVNLMSYVTYVFQKLFGYSEPHATKLMLQVHNEGKAVVSAGSRESMEVDVSKLHAAGLWATMQQDR
notes: also called His6-ClpS; His6-tagged ClpS; not shown: His6, N-terminal, kept; SUMO, N-terminal, kept
B1: binds.
